Laboratory results taken from patent US20240270846A1 (published 2024).
Numbering of substitutions follows the chain as printed.

B1: GPC3 ERY22-B (bispecific antibody, human IgG1, kappa, L234A L235A, N297A)
heavy 1: DIVMTQSPLSLPVTPGEPASISCRSSQSLVHSNRNTYLHWYQQKPGQAPRLLIYKVSNRFSGVPDRFSGSGSGTDFTLKISRVEAEDVGVYYCSQNTHVPPTFGQGTKLEIKSSASTKGPSVFPLAPSSKSTSGGTAALGCLVKDYFPEPVTVSWNSGALTSGVHTFPAVLQSSGLYSLSSVVTVPSSSLGTQTYICNVNHKPSNTKVDKKVEPKSCDKTHTCPPCPAPEAAGGPSVFLFPPKPKDTLMISRTPEVTCVVVDVSHEDPEVKFNWYVDGVEVHNAKTKPREEQYASTYRVVSVLTVLHQDWLNGKEYKCKVSNKALPAPIEKTISKAKGQPREPQVCTLPPSRDELTKNQVSLWCLVKGFYPSDIAVEWESNGQPENNYKTTPPVLDSDGSFFLYSKLTVDKSRWQQGNVFSCSVMHEALHNHYTQKSLSLSPHHHHHHHH
light 1: QVQLVQSGAEVKKPGASVKVSCKASGYTFTDYEMHWIRQPPGQGLEWIGAIDPKTGDTAYSQKFKGRVTLTADKSTSTAYMELSSLTSEDTAVYYCTRFYSYTYWGQGTLVTVSSASVAAPSVFIFPPSDEQLKSGTASVVCLLNNFYPREAKVQWKVDNALQSGNSQESVTEQDSKDSTYSLSSTLTLSKADYEKHKVYACEVTHQGLSSPVTKSFNRGEC
heavy 2: QVQLQQWGAGLLKPSETLSLTCAVYGGSFSGYYWSWIRQSPEKGLEWIGEINHGGYVTYNPSLESRVTISVDTSKNQFSLKLSSVTAADTAVYYCARDYGPGNYDWYFDLWGRGTLVTVSSASTKGPSVFPLAPSSKSTSGGTAALGCLVKDYFPEPVTVSWNSGALTSGVHTFPAVLQSSGLYSLSSVVTVPSSSLGTQTYICNVNHKPSNTKVDKKVEPKSCDKTHTCPPCPAPEAAGGPSVFLFPPKPKDTLMISRTPEVTCVVVDVSHEDPEVKFNWYVDGVEVHNAKTKPREEQYASTYRVVSVLTVLHQDWLNGKEYKCKVSNKALPAPIEKTISKAKGQPREPQVYTLPPSRCELTKNQVSLSCAVKGFYPSDIAVEWESNGQPENNYKTTPPVLDSDGSFFLVSKLTVDKSRWQQGNVFSCSVMHEALHNHYTQKSLSLSP
light 2: not shown
B2: GPC3 ERY22-dBBDu_167/L091 (bispecific antibody, human IgG1, kappa, L234A L235A, N297A)
heavy 1: B1 heavy 1
light 1: B1 light 1
heavy 2: QVQLVESGGGLVQPGRSLRLSCAASGFTFSNAWMHWVRQAPGKGLEWVAQIKDKGNLYAAYYAPSVKGRFTISRDDSKNSIYLQMNSLKTEDTAVYYCHYVHYASAGGGLPGFGVDAWGQGTTVTVSSASTKGPSVFPLAPSSKSTSGGTAALGCLVKDYFPEPVTVSWNSGALTSGVHTFPAVLQSSGLYSLSSVVTVPSSSLGTQTYICNVNHKPSNTKVDKKVEPKSCDKTHTCPPCPAPEAAGGPSVFLFPPKPKDTLMISRTPEVTCVVVDVSHEDPEVKFNWYVDGVEVHNAKTKPREEQYASTYRVVSVLTVLHQDWLNGKEYKCKVSNKALPAPIEKTISKAKGQPREPQVYTLPPSRCELTKNQVSLSCAVKGFYPSDIAVEWESNGQPENNYKTTPPVLDSDGSFFLVSKLTVDKSRWQQGNVFSCSVMHEALHNHYTQKSLSLSPDYKDDDDK
light 2: DIVMTQSPLSLPVTPGEPASISCSASESLLHNNRHTYLHWYQQKPGQAPRLLIYRVSNRFNGVPDRFSGSGSGTDFTLKISRVEAEDVGVYYCGQGTQVPFTFGQGTKLEIKRTVAAPSVFIFPPSDEQLKSGTASVVCLLNNFYPREAKVQWKVDNALQSGNSQESVTEQDSKDSTYSLSSTLTLSKADYEKHKVYACEVTHQGLSSPVTKSFNRGEC
B3: GPC3 ERY22-dBBDu_183/L072 (bispecific antibody, human IgG1, kappa, L234A L235A, N297A)
heavy 1: B1 heavy 1
light 1: B1 light 1
heavy 2: B2 heavy 2 with L57A, G107S, G108T, G109V, G112A
light 2: B2 light 2 with S24Q, E27Q, S28E, L30V, N32M, H35N, R55K, N61P, G94A, Q98S
B4: GPC3 ERY22-dBBDu_186/L106 (bispecific antibody, human IgG1, kappa, L234A L235A, N297A)
heavy 1: B1 heavy 1
light 1: B1 light 1
heavy 2: B2 heavy 2 with K54R, G55S, L57Q, A60T, S105Q, G107S, G108T, G109V, G112A
light 2: DIVMTQSPLSLPVTPGEPASISCSTSEELLHINRFIFLHWYQQKPGQAPRLLIYKVANRFMGVPDRFSGSGSGTDFTLKISRVEAEDVGVYYCAQGSQVPFTFGQGTKLEIKRTVAAPSVFIFPPSDEQLKSGTASVVCLLNNFYPREAKVQWKVDNALQSGNSQESVTEQDSKDSTYSLSSTLTLSKADYEKHKVYACEVTHQGLSSPVTKSFNRGEC
B5: GPC3 ERY22-dBBDu_186/L096 (bispecific antibody, human IgG1, kappa, L234A L235A, N297A)
heavy 1: B1 heavy 1
light 1: B1 light 1
heavy 2: B2 heavy 2 with K54R, G55S, L57Q, A60T, S105Q, G107S, G108T, G109V, G112A
light 2: B4 light 2 with S24R, E27Q, L30V, F35Y, A57Y, M61Q, S97T, Q98S, F101Y
B6: GPC3 ERY22-dBBDu_186/L098 (bispecific antibody, human IgG1, kappa, L234A L235A, N297A)
heavy 1: B1 heavy 1
light 1: B1 light 1
heavy 2: B2 heavy 2 with K54R, G55S, L57Q, A60T, S105Q, G107S, G108T, G109V, G112A
light 2: B4 light 2 with S24A, T25A, L30V, F35Y, A57S, M61I
B7: GPC3 ERY22-dBBDu_183/L063 (bispecific antibody, human IgG1, kappa, L234A L235A, N297A)
heavy 1: B1 heavy 1
light 1: B1 light 1
heavy 2: B2 heavy 2 with L57A, G107S, G108T, G109V, G112A
light 2: B2 light 2 with S24R, A25S, E27Q, S28E, L30V, N32T, R55K, N61P, G94A
B8: CE115HA000 Y100aF one-arm antibody (antibody, human IgG1, kappa, L234A L235A, N297A, name in Kabat numbering)
heavy: QVQLVESGGGVVQPGRSLRLSCAASGFTFSNAWMHWVRQAPGKGLEWVAQIKAKSNNYATYYAESVKGRFTISRDDSKNSLYLQMNSLKTEDTAVYYCRYVHYGAYFGVDAWGQGTTVTVSSASTKGPSVFPLAPSSKSTSGGTAALGCLVKDYFPEPVTVSWNSGALTSGVHTFPAVLQSSGLYSLSSVVTVPSSSLGTQTYICNVNHKPSNTKVDKKVEPKSCDKTHTCPPCPAPEAAGGPSVFLFPPKPKDTLMISRTPEVTCVVVDVSHEDPEVKFNWYVDGVEVHNAKTKPREEQYASTYRVVSVLTVLHQDWLNGKEYKCKVSNKALPAPIEKTISKAKGQPREPQVYTLPPSRCELTKNQVSLSCAVKGFYPSDIAVEWESNGQPENNYKTTPPVLDSDGSFFLVSKLTVDKSRWQQGNVFSCSVMHEALHNHYTQKSLSLSPDYKDDDDK
chain: EPKSSDKTHTCPPCPAPELLGGPSVFLFPPKPKDTLMISRTPEVTCVVVDVSHEDPEVKFNWYVDGVEVHNAKTKPREEQYNSTYRVVSVLTVLHQDWLNGKEYKCKVSNKALPAPIEKTISKAKGQPREPQVCTLPPSRDELTKNQVSLWCLVKGFYPSDIAVEWESNGQPENNYKTTPPVLDSDGSFFLYSKLTVDKSRWQQGNVFSCSVMHEALHNRYTQKSLSLSP
light: B2 light 2 with S24R, A25S, E27Q, L30V, N32S, H35N, R55K, N61S, F101Y
notes: one-arm antibody
B9: CE115HA000 Y100aL one-arm antibody (antibody, human IgG1, kappa, L234A L235A, N297A, name in Kabat numbering)
heavy: B8 heavy with F107L
chain: B8 chain
light: B2 light 2 with S24R, A25S, E27Q, L30V, N32S, H35N, R55K, N61S, F101Y
notes: one-arm antibody
B10: CE115HA000 Y100aK one-arm antibody (antibody, human IgG1, kappa, L234A L235A, N297A, name in Kabat numbering)
heavy: B8 heavy with F107K
chain: B8 chain
light: B2 light 2 with S24R, A25S, E27Q, L30V, N32S, H35N, R55K, N61S, F101Y
notes: one-arm antibody
B11: CE115HA000 Y100aG one-arm antibody (antibody, human IgG1, kappa, L234A L235A, N297A, name in Kabat numbering)
heavy: B8 heavy with F107G
chain: B8 chain
light: B2 light 2 with S24R, A25S, E27Q, L30V, N32S, H35N, R55K, N61S, F101Y
notes: one-arm antibody
B12: CE115HA000 Y100aQ one-arm antibody (antibody, human IgG1, kappa, L234A L235A, N297A, name in Kabat numbering)
heavy: B8 heavy with F107Q
chain: B8 chain
light: B2 light 2 with S24R, A25S, E27Q, L30V, N32S, H35N, R55K, N61S, F101Y
notes: one-arm antibody
B13: CE115HA000 Y100aS one-arm antibody (antibody, human IgG1, kappa, L234A L235A, N297A, name in Kabat numbering)
heavy: B8 heavy with F107S
chain: B8 chain
light: B2 light 2 with S24R, A25S, E27Q, L30V, N32S, H35N, R55K, N61S, F101Y
notes: one-arm antibody

Key:
[1] = target: human CD137 expressed constitutively on the B cell strain HDLM-2 (human, UniProt Q07011 24-255); test: cell-based or functional assay
[2] = target: T1, CD3 epsilon homodimer protein (UniProt P07766 23-126); test: SPR (Biacore T200), CD3 epsilon homodimer on CM4 chip, one-arm antibody as analyte; ratio to unaltered CE115HA000;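 further: surface plasmon resonance run at 25 °C with HBS-EP+ as running buffer, CD3 epsilon homodimer attached by amine coupling, antibody passed over as analyte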
T1 construct: Construct of the homodimer protein is not described; also called CD3 (CD3 epsilon)
T1 sequence (P07766 23-126): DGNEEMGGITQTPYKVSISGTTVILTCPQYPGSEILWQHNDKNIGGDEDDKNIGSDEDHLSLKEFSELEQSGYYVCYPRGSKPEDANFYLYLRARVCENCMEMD

Chain of human CD137 expressed constitutively on the B cell strain HDLM-2 (Q07011 24-255): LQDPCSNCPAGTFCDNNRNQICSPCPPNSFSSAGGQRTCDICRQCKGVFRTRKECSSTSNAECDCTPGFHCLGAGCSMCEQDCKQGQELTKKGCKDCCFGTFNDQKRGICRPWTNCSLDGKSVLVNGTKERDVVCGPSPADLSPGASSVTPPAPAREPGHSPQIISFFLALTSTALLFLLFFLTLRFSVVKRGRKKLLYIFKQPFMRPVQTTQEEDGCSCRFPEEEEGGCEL

| Binder | Agonistic activity compared to B, antibody 6 µg/mL [1] [%] | Agonistic activity compared to B, antibody 30 µg/mL [1] [%] | Agonistic activity compared to Ctrl, antibody 6 µg/mL [1] [%] | Agonistic activity compared to Ctrl, antibody 30 µg/mL [1] [%] | hIL-6 (pg/mL), antibody 6 µg/mL [1] [pg/mL] | hIL-6 (pg/mL), antibody 30 µg/mL [1] [pg/mL] | KD ratio (KD value of CE115HA000/KD value of the altered form) [2] |
| --- | --- | --- | --- | --- | --- | --- | --- |
| B1 | 100 | 100 | 347 | 380 | 4520 | 4340 | – |
| B2 | -2.21 | 1.1 | -7.68 | 4.19 | 935 | 944 | – |
| B3 | 3.21 | 15.8 | 11.1 | 59.8 | 1130 | 1450 | – |
| B4 | 13.2 | 19.4 | 45.8 | 73.6 | 1480 | 1570 | – |
| B5 | 19 | 24.2 | 66.1 | 91.7 | 1680 | 1740 | – |
| B6 | 13.9 | 24.6 | 48.3 | 93.5 | 1500 | 1750 | – |
| B7 | -1.27 | 6.51 | -4.41 | 24.7 | 968 | 1130 | – |
| B8 | – | – | – | – | – | – | 0.98 |
| B9 | – | – | – | – | – | – | 0.57 |
| B10 | – | – | – | – | – | – | 0.79 |
| B11 | – | – | – | – | – | – | 1.01 |
| B12 | – | – | – | – | – | – | 0.51 |
| B13 | – | – | – | – | – | – | 0.59 |
